The source of these data is US20240124586A1 (WUXI BIOLOGICS IRELAND, published 2024).

Residue numbers refer to the chain shown, from its start. Numbers in names are those of the source. Where two headings read alike, the source gives them in different places.

The target in assay [1] is T1, ECD of human CTLA-4 (SPR analyte) (human, UniProt P16410 36-161).
T1 construct: extracellular domain
Put plainly: SPR (Biacore), antibody captured as ligand on an anti-human IgG Fc chip, CTLA4 ECD as analyte. Here is the method:
(§1) SPR technology was used to measure the on-rate constant (ka) and off-rate constant (kd) of the antibodies to ECD of CTLA-4 or PD-1. The affinity constant (KD) was consequently determined.
(§2) Biacore T200, Series S Sensor Chip CM5, Amine Coupling Kit, and 10×HBS-EP were purchased from GE Healthcare. Goat anti-human IgG Fc antibody was purchased from Jackson ImmunoResearch Lab (catalog number 109-005-098). In immobilization step, the activation buffer was prepared by mixing 400 mM EDC and 100 mM NHS immediately prior to injection. The CM5 sensor chip was activated for 420 s with the activation buffer. 30 μg/mL of goat anti-human IgG Fcγ antibody in 10 mM NaAc (pH 4.5) was then injected to Fc1-Fc4 channels for 200 s at a flow rate of 5 μL/min. The chip was deactivated by 1 M ethanolamine-HCl (GE). Then the antibodies were captured on the chip. Briefly, 4 μg/mL antibodies in running buffer (HBS-EP+) was injected individually to Fc3 channel for 30 s at a flow rate of […]. […] Regeneration buffer (10 mM Glycine pH 1.5) was injected at 10 μL min for 30 s following every dissociation phase.
A general note: Surface plasmon resonance follows binding to a sensor surface in real time, without labels.

The target of assay [2] is T1, ECD of human CTLA-4 (SPR analyte). Put plainly: SPR (Biacore T200), antibody captured by anti-human Fc, CTLA-4 ECD as analyte. Here is the method:
as §1, §2

For assay [3], the target named is T2, FcγRIIa (R167) (UniProt P12318 36-218, limits assumed).
T2 sequence (looked up): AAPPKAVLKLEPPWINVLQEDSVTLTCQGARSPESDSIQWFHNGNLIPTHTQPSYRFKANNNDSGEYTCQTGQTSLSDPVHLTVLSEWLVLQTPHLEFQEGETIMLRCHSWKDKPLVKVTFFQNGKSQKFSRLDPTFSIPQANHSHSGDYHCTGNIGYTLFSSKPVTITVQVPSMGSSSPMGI
Briefly: SPR (Biacore), receptor captured on anti-his chip, steady state model. Here is the method:
(§3) Antibody binding affinity to FcγRs was detected using Biacore T200 (or Biacore 8K). Each receptor was captured on an anti-his antibody immobilized CM5 sensor chip (GE). Antibodies at different concentrations were injected over the sensor chip at a flow rate of 30 uL/min for an association phase of 60 s, followed by 60 s dissociation. The chip was then regenerated by 10 mM glycine (pH 1.5) after each binding cycle.
(§4) The sensorgrams of blank surface and buffer channel were subtracted from the test sensorgrams. The experimental data was fitted by 1:1 model using Langmiur analysis (for FcγRI) or steady state model (for other receptors). A molecular weight of 150 KDa was used to calculate the molar concentration of antibodies.

Assay [4] addresses T3, FcγRIIIa (V176) (UniProt P08637 17-208). The description is as above. Here is the method: as §3, §4
The target of assay [5] is T4, FcγRIIIa (F176) (UniProt P08637 17-208). The assay is described as above. Here is the method:
as §3, §4

Assay [6] has as its target T5, FcγRIIa (H167) (UniProt P12318 36-218, limits assumed).
T5 sequence (looked up): T2 sequence (looked up) with R132H
The description is as above. Here is the method: as §3, §4

Assay [7] deals with T6, human CD19 on CD19+ B cell lines (Ramos, Raji) (human, UniProt P15391 20-556).
T6 sequence (looked up): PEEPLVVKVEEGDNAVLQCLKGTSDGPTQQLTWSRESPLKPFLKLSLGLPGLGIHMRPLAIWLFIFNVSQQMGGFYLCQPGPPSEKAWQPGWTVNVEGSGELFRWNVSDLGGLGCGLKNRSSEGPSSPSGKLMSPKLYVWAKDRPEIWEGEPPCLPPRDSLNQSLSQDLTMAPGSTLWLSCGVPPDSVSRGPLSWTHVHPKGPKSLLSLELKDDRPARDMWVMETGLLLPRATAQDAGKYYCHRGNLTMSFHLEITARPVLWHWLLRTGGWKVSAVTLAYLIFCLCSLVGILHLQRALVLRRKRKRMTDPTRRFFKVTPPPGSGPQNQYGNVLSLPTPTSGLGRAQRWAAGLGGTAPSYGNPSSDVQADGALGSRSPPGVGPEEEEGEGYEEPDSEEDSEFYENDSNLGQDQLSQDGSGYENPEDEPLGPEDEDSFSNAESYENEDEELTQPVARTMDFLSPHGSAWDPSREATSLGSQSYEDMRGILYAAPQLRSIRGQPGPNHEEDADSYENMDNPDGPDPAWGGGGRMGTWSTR
Briefly: cell-based or functional assay.

In assay [8] the target is T2, FcγRIIa (R167). Briefly: SPR (Biacore), receptor captured on anti-his chip, steady state model. Here is the method: as §3, §4
The source holds these as a separate data set.

The target in assay [9] is T3, FcγRIIIa (V176). The assay is described as above. Here is the method:
as §3, §4
This is another data set of the same source.

Assay [10] has as its target T4, FcγRIIIa (F176). The assay is described as above. Here is the method:
as §3, §4
This is another data set of the same source.

Another assay concerns the target T7, FcγRIIb (UniProt P31994 46-217, limits assumed).
T7 sequence (looked up): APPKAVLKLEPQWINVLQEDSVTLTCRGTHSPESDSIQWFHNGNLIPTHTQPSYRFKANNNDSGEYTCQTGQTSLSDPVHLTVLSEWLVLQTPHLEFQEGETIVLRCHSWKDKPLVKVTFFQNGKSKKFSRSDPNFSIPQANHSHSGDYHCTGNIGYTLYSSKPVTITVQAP
The description is as above. Here is the method:
as §3, §4

Assay [11] deals with T5, FcγRIIa (H167). The assay is described as above. Here is the method: as §3, §4
This is another data set of the same source.

T1 sequence (P16410 36-161): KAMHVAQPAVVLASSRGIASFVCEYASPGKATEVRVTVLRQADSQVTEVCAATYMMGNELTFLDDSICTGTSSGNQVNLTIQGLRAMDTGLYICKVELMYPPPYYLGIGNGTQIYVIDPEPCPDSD
T3 sequence (P08637 17-208 F176V limits assumed): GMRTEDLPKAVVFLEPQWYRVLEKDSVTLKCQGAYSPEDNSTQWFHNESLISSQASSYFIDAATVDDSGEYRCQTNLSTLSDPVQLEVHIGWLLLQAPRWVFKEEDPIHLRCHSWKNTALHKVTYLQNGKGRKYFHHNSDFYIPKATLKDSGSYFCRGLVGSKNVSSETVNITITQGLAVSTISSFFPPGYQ
T4 sequence (P08637 17-208 limits assumed): as the sequence (P08637 17-208 F176V limits assumed) above, with V160F counted along it

B1: W3248-U6T5.G25-1.uIgG4.SP, bispecific anti-PD-1 x CTLA-4 (bispecific antibody)
heavy: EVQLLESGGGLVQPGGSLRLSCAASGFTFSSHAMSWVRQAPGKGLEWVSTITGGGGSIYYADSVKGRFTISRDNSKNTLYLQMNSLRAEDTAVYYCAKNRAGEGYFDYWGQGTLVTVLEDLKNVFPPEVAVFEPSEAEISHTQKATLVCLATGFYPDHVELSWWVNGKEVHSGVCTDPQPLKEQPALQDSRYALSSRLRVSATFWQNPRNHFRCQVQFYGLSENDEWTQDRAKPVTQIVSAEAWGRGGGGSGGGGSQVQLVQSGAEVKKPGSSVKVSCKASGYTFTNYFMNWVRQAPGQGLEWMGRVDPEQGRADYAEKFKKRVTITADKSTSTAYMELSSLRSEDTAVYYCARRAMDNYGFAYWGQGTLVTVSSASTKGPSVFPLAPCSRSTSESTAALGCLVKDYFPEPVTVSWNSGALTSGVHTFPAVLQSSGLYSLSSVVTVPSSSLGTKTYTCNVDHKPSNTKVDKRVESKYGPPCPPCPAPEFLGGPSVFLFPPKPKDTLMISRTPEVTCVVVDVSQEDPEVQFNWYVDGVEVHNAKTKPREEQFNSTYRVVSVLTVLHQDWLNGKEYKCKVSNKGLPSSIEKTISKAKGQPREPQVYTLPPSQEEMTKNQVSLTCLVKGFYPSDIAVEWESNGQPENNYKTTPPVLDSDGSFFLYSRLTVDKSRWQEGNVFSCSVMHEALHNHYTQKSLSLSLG
light 1: SYELTQPLSVSVALGQTARITCGGDNIGNKDVHWYQQKPGQAPVLVIYRDSNRPSGIPEGFSGSNSGNTATLTISRAQAGDEADYYCQVWDSIWVFGGGTKLTVLPDIQNPDPAVYQLRDSKSSDKSVCLFTDFDSQTQVSQSKDSDVYITDKCVLDMRSMDFKSNSAVAWSQKSDFACANAFQNSIIPEDTFFPSPESS
light 2: EIVLTQSPDFQSVTPKEKVTITCSANSALSYMYWYQQKPDQSPKLWVHGTSNLASGVPSRFSGSGSGTDFTLTINSLEAEDAATYYCHHWSNTQWTFGGGTKVEIKRTVAAPSVFIFPPSDEQLKSGTASVVCLLNNFYPREAKVQWKVDNALQSGNSQESVTEQDSKDSTYSLSSTLTLSKADYEKHKVYACEVTHQGLSSPVTKSFNRGEC
notes: IgG4 (S228P); also called WBP3248-U6T5.G25-1-uIgG4.SP; U6T5.G25.IgG4
A word on the Kd: it is the equilibrium constant for the complex coming apart. Low values mean higher affinity, high ones lower affinity. A word on the koff: it is the first-order rate constant of dissociation. Low readings indicate a long-lived complex, high ones a short-lived complex. What is called kon is the rate constant with which the complex forms. Low values mean slow association, high ones fast association. Turning to B1, in assay [1], the Kd amounted to 0.0356 nM, the koff amounted to 2.88e-05 s⁻¹ and the kon was 808000 M⁻¹ s⁻¹. For the same molecule, binding in assay [2] was put at a Kd of 0.357 nM.

B2: W3438-T3U4.E17-1.uIgG4.SP, bispecific anti-CD3 x CD19 (bispecific antibody)
heavy 1: QVQLVQSGAEVKKPGSSVKVSCKASGFAFTDYYIHWVRQAPGQGLEWMGWISPGNVNTKYNENFKGRVTITADKSTSTAYMELSSLRSEDTAVYYCARDGYSLYYFDYWGQGTLVTVLEDLKNVFPPEVAVFEPSEAEISHTQKATLVCLATGFYPDHVELSWWVNGKEVHSGVCTDPQPLKEQPALQDSRYALSSRLRVSATFWQNPRNHFRCQVQFYGLSENDEWTQDRAKPVTQIVSAEAWGRYGPPCPPCPAPEFLGGPSVFLFPPKPKDTLMISRTPEVTCVVVDVSQEDPEVQFNWYVDGVEVHNAKTKPREEQFNSTYRVVSVLTVLHQDWLNGKEYKCKVSNKGLPSSIEKTISKAKGQPREPQVYTLPPCQEEMTKNQVSLWCLVKGFYPSDIAVEWESNGQPENNYKTTPPVLDSDGSFFLYSRLTVDKSRWQEGNVFSCSVMHEALHNHYTQKSLSLSLGK
light 1: DIVMTQSPDSLAVSLGERATINCKSSQSLLNSRTRKNYLAWYQQKPGQPPKLLIYWASTRQSGVPDRFSGSGSGTDFTLTISSLQAEDVAVYYCTQSHTLRTFGGGTKVEIKPDIQNPDPAVYQLRDSKSSDKSVCLFTDFDSQTQVSQSKDSDVYITDKCVLDMRSMDFKSNSAVAWSQKSDFACANAFQNSIIPEDTFFPSPESS
heavy 2: QMQLVQSGPEVKKPGTSVKVSCKASGYAFTSYNMYWVRQARGQRLEWIGYIDPYNGDTTYNQKFKGRVTITRDMSTSTAYMELSSLRSEDTAVYYCLTTAYAMDYWGQGTLVTVSSASTKGPSVFPLAPCSRSTSESTAALGCLVKDYFPEPVTVSWNSGALTSGVHTFPAVLQSSGLYSLSSVVTVPSSSLGTKTYTCNVDHKPSNTKVDKRVESKYGPPCPPCPAPEFLGGPSVFLFPPKPKDTLMISRTPEVTCVVVDVSQEDPEVQFNWYVDGVEVHNAKTKPREEQFNSTYRVVSVLTVLHQDWLNGKEYKCKVSNKGLPSSIEKTISKAKGQPREPQVCTLPPSQEEMTKNQVSLSCAVKGFYPSDIAVEWESNGQPENNYKTTPPVLDSDGSFFLVSRLTVDKSRWQEGNVFSCSVMHEALHNHYTQKSLSLSLGK
light 2: DIQLTQSPSFLSASVGDRVTITCSASSTVNYMHWYQQKPGKAPKLLIYSTSNLASGVPSRFSGSGSGTEFTLTISSLQPEDFATYYCHQWSSYPYTFGQGTKLEIKRTVAAPSVFIFPPSDEQLKSGTASVVCLLNNFYPREAKVQWKVDNALQSGNSQESVTEQDSKDSTYSLSSTLTLSKADYEKHKVYACEVTHQGLSSPVTKSFNRGEC
notes: also called E17-Design_2-QQQQ (IgG4); E17-IgG4; copies: 1 + 1 + 1 + 1
For the molecule B2, the Kd in the assay with FcγRIIa (R167) [3] was 15.8 µM; with FcγRIIIa (V176) [4], 14 µM; in the assay with FcγRIIIa (F176) [5], 29.3 µM; with FcγRIIa (H167) [6], 20.5 µM; with FcγRIIa (R167) [8], 15.8 µM; with FcγRIIIa (V176) [9], 14 µM. Moreover, the Kd with FcγRIIIa (F176) [10] amounted to 29.3 µM; with FcγRIIb, 24.1 µM; with FcγRIIa (H167) [11], 20.5 µM. In addition, the “EC50 of T-cell directed killing of malignant B cells (PI-positive Raji cells)” value in assay [7] was 57 pM. The “EC50 of T-cell engaged malignant B cell killing” value in assay [7] came out at 17.7 pM. In addition, in [7], the “EC50 of cell lysis, CD8+ T cells and Raji cells, 4 hours” value turned out to be 15 nM.
